Source: PMC6194676, “Blood-brain barrier-associated pericytes internalize and clear aggregated amyloid-β42 by LRP1-dependent apolipoprotein E isoform-specific mechanism” (Molecular Neurodegeneration, 2018)

B1: RAP: Receptor associated protein, an LRP1 antagonist which inhibits ligand binding to LRP1 (protein, UniProt P30533 35-357, looked up)
Alpha-2-macroglobulin …: YSREKNQPKPSPKRESGEEFRMEKLNQLWEKAQRLHLPPVRLAELHADLKIQERDELAWKKLKLDGLDEDGEKEARLIRNLNVILAKYGLDGKKDARQVTSNSLSGTQEDGLDDPRLEKLWHKAKTSGKFSGEELDKLWREFLHHKEKVHEYNVLLETLSRTEEIHENVISPSDLSDIKGSVLHSRHTELKEKLRSINQGLDRLRRVSHQGYSTEAEFEEPRVIDLWDLAQSANLTDKELEAFREELKHFEAKIEKHNHYQKQLEIAHEKLRHAESVGDGERVSRSREKHALLEGRTKELGYTVKKHLQDLSGRISRARHNEL

Tests used:
CD13+ pericytes = test: Cy3-Aβ42 uptake by pericytes on freshly isolated mouse brain cortical slices; type: cell-based; conditions: Cy3-Aβ42 1 μM
Method: Brain slices were prepared from 2-month old C57BL6 mice or Lrp^lox/lox;Cspg4-Cre mice. Following the urethane anesthesia, brains were quickly removed from the cranial cavity and sectioned with McIlwain tissue chopper (Ted Pella, Inc., Redding, CA, USA) into 200 μm thick slices containing cortex and hippocampus, as previously described. Slices were recovered for 30 min in a submersion chamber filled with the per-warmed (at 37 °C) artificial cerebrospinal fluid (aCSF; 126 mM NaCl, 2.5 mM KCl, 1.25 mM Na2PO4, 26 mM NaHCO3, 1 mM MgCl2, 2 mM CaCl2, 0.5 mM ascorbic acid, 2 mM sodium pyrurate, and 10 mM glucose, saturated with 95% O2 and 5% CO2). […] (anti-LRP1 N20, 50 μg/ml; Santa Cruz Biotech., Santa Cruz, CA, USA) for 20 min at 37 °C. At the end of the experiment, brain slices were washed with phosphate buffer saline (PBS) and fixed with 4% PFA for 30 min. The same immunostaining procedure as for human brain tissue without antigen retrieval was performed on mouse brain slices. Primary antibodies included goat anti-mouse aminopeptidase N (CD13) (1:100, R&D Systems), and goat anti-mouse PDGFRβ (1:100, R&D Systems). Secondary antibodies were: Alexa 488-conjugated donkey anti-goat (1:200, Invitrogen). Images were obtained with Zeiss 510 confocal microscopy (Carl Zeiss MicroImaging Inc.) with lasers and band-pass filter settings as described above. […]

[1] = tested on: primary mouse brain pericytes; test: Clearance of aggregated Cy3-Aβ42 from multi-spot glass slides by primary mouse brain pericytes; type: cell-based; conditions: 5 days of culture, 1 μg Cy3-Aβ42 per spot, 5,000 cells per spot; anti-LRP1 50 μg/ml, RAP 500 nM, or si.Lrp1; compared to cell-free control; N = 4 independent cultures, mean
Text: Brain capillaries were isolated from mouse cortices pooled from 3 to 4 mouse brains for each biological replicate. In experiments in Figs. 4 and 5, we used 3–4 independent biological replicates (cultures), as indicated in the legends to these respective figures. Capillaries were isolated as we have described previously. In brief, mouse cortices were macroscopically dissected, and all visible white matter was discarded in ice-cold PBS containing 2% fetal bovine serum (FBS). The brain was homogenized in PBS containing 2% FBS and centrifuged at 6,000 g for 15 min after addition of Dextran (70 kDa, Sigma). The capillary pellet was collected and sequentially filtered through a 45 μm cell strainer (BD Falcon). […]
The multi-spot glass slides (Thermo Scientific, 9991090, Waltham, MA, USA) were coated with Cy3- Aβ42 [29, 51] at 1 μg per spot without cells or with brain capillary pericytes treated with non-immune IgG (NI-IgG) or LRP1-specific blocking antibody (anti-LRP1; 50 μg/ml) or) or apoE-specific blocking antibody (anti-apoE, HJ6.3, 50 μg/ml), scrambled siRNA (si.Control) or LRP1 siRNA (si.Lrp1) (Dharmacon, E-040764-00-0010) or apoE siRNA (si.Apoe) (Dharmacon, E-040885-00-0005), and 500 nM receptor-associated protein (RAP) (EMD Bioscience), lipidated apoE3 (40 nM) or apoE4 (40 nM). […] The Cy3-Aβ42 relative intensity was analyzed with the NIH Image J software. […]

Molecule	Uptake of Cy3-Aβ42 by pericytes, time course (CD13+ pericytes; 30 min vs 2 h)	Cy3-Aβ42 cleared by pericytes [1]	Cy3-Aβ42+ area occupying CD13+ pericyte profiles (CD13+ pericytes; 2 h, in the presence of the LRP1 inhibitor (anti-LRP1 50 μg/ml), confocal microscopy, N = 4 independent cultures, mean)
Cy3-Aβ42: Human Cy3-labelled amyloid-β42; preparation contained monomers, dimers, trimers, tetramers and small molecular weight oligomers [reference compound]	rapid and time-dependent	–	–
B1	–	27.3%	21.7%
